One experiment has as its target CD19 (UniProt P15391). In words: cell-based or functional assay.
For experiment [1], the target named is CD19 CAR with CD34 spacer #C2 (human). In words: MACS selection of transduced Jurkat cells with bead-labelled antibody, flow cytometry of fractions. On the technique in general: A flow cytometer gives signals particle by particle.
The target in experiment [2] is CD19 CAR with CD34 spacer #C3 (human). Described as above.
The target in experiment [3] is CD19 CAR with CD34 spacer #C4 (human). The description is as above.
Chain of CD19 CAR with CD34 spacer #C4 (human) (P28906 32-90): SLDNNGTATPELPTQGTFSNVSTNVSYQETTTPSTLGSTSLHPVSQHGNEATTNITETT
Experiment [4] concerns the target CD19 CAR with CD34 spacer #C5 (human). The description is as above.
Experiment [5] concerns the target CD19 CAR with CD34 spacer #C7 (human). The description is as above.
Experiment [6] deals with CD19 CAR with NGFR/CD271 spacer #N3. The description is as above.
Chain of CD19 CAR with NGFR/CD271 spacer #N3 (P08138 108-227): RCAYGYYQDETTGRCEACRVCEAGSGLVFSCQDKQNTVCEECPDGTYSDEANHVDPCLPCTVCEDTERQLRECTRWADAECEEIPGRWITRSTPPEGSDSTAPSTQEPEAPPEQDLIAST
For experiment [7], the target named is CD19 CAR with NGFR/CD271 spacer #N4. Described as above.
Chain of CD19 CAR with NGFR/CD271 spacer #N4 (P08138 66-227): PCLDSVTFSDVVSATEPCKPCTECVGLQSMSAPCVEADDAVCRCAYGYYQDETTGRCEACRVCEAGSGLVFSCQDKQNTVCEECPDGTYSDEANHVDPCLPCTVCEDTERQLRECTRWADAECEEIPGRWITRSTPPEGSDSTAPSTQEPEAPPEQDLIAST

These results are taken from patent US20180094044A1.

Chain of CD19 CAR with CD34 spacer #C5 (human) (P28906 42-110): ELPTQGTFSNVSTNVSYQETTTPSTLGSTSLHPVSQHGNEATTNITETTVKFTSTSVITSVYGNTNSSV
Chain of CD19 CAR with CD34 spacer #C3 (human) (P28906 42-90): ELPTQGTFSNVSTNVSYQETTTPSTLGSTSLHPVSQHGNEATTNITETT
Chain of CD19 CAR with CD34 spacer #C7 (human) (P28906 42-220): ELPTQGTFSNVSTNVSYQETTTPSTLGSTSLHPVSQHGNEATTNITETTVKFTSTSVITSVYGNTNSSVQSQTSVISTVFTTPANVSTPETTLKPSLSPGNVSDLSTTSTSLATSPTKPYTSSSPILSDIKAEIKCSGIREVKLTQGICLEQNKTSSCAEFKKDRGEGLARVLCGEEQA
Chain of CD19 CAR with CD34 spacer #C2 (human) (P28906 32-63): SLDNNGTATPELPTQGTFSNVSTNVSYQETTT
Chain of UniProt P15391 (P15391 20-556 limits assumed): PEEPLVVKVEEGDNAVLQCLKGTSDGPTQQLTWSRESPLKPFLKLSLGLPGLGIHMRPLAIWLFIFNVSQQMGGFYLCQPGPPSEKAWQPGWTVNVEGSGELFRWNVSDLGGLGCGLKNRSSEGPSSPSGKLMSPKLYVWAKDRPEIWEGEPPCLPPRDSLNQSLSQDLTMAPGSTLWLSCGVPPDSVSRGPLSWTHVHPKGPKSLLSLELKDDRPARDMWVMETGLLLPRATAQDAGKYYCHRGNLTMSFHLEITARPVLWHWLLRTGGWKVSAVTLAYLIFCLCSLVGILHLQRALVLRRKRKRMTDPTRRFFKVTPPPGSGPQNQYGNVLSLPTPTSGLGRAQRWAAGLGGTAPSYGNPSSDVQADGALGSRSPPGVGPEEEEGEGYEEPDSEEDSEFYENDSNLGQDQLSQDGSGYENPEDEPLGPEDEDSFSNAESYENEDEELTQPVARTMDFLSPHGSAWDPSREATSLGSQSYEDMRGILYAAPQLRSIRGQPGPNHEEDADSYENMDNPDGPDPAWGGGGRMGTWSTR

As for “CD19 CAR with the IgG4 CH2CH3 as spacer domain (from UniProt P01861 99-327)”, the killing of REH cells at 0.1:1 effector to target cell ratio with CD19 is 48.9%.
With CD34 monoclonal antibody QBend10, the percent positive cells before MACS amounted to 68.7% in experiment [1]; 61.6% in experiment [2]; 64.3% in experiment [3]; 65.5% in experiment [4]; 78.4% in experiment [5]. Moreover, the percent positive cells in flow through turned out to be 68.1% in experiment [1]; 47.6% in experiment [2]; 47% in experiment [3]; 41.1% in experiment [4]; 67.1% in experiment [5].
Consider CD271 monoclonal antibody ME20.4, for which, in experiment [6], the percent positive cells before MACS amounted to 60.1% and the percent positive cells in flow through was 57.2%. Also, in experiment [7], the percent positive cells before MACS is 51.4% and the percent positive cells in flow through came out at 49.7%.
